Test results as given in US20030171537A1 (Bayer, published 2003).
Non-standard residues stand in square brackets, D forms with d.

Target: human wild-type p53 (full-length, in vitro translated from plasmid pGEMhump53wt) (human, UniProt P04637 1-393)
Test: cell-based or functional assay

Chain of human wild-type p53 (full-length, in vitro translated from plasmid pGEMhump53wt) (P04637 whole entry): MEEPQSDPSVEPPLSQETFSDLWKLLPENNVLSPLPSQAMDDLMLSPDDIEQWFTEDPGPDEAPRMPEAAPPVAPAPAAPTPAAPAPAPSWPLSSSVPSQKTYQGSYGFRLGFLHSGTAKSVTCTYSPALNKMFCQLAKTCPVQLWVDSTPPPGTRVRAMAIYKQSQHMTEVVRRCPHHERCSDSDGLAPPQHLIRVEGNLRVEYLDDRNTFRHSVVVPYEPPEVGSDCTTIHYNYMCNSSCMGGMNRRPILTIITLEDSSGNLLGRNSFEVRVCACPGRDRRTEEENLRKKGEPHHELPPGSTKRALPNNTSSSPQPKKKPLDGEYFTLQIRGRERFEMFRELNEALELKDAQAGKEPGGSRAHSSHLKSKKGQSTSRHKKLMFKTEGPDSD

B1: cyclic peptide c[SRHKKa] (peptide)
peptide: cyclo(SRHKK[dA])
SMILES: C[C@H]1NC(=O)[C@H](CCCCN)NC(=O)[C@H](CCCCN)NC(=O)[C@H](Cc2c[nH]cn2)NC(=O)[C@H](CCCNC(=N)N)NC(=O)[C@H](CO)NC1=O
**Q.** How did the “activation of p53 DNA binding (gel shift), relative to 0.05 mM peptide p53p363-373” value turn out when B1 was run?
**A.** ~2 times
